# T1: SPATA2_PIM (Homo sapiens (Human), UniProt Q9UM82)
# T1 chain: DVDLYTDSEPR
# T2: OTULIN_PIM (Homo sapiens (Human), UniProt Q96BN8)
# T2 chain: AEHEEDMYRAADEIEKEKE
# T3: p97_PIM (Homo sapiens (Human), UniProt P55072)
# T3 chain: TEDNDDDLYG
# B1: UBXN6_PUB (protein)
# chain: STDPVAASIMKIYTFNKDQDRVKLGVDTIAKYLDNIHLHPEEEKYRKIKLQNKVFQERINCLEGTHEFFEAIGFQKVLLPAQDQEDPEEFYVLSETTLAQPQSLERHKEQLLAAE
# B2: SPATA2_PUB (protein)
# chain: MDTKFKDDLFRKYVQFHESKVDTTTSRQRPGSDECLRVAASTLLSLHKVDPFYRFRLIQFYEVVESSLRSLSSSSLRALHGAFSMLETVGINLFLYPWKKEFRSIKTYTGPFVYYVKSTLLEEDIRAILSCMGYTPELGTAYKLRELVETLQVKMVSFELFLAKVECEQMLEIHSQVKDKGYSELDIVSERKSSAEDVRGCSDALRRRAEGRE
# B3: PNGase_PUB (protein)
# chain: GSASPAVAELCQNTPETFLEASKLLLTYADNILRNPNDEKYRSIRIGNTAFSTRLLPVRGAVECLFEMGFEEGETHLIFPKKASVEQLQKIRDLIAIER
# B4: HOIP_PUB (protein)
# chain: MPGEEEERAFLVAREELASALRRDSGQAFSLEQLRPLLASSLPLAARYLQLDAARLVRCNAHGEPRNYLNTLSTALNILEKYGRNLLSPQRPRYWRGVKFNNPVFRSTVDAVQGGRDVLRLYGYTEEQPDGLSFPEGQEEPDEHQVATVTLEVLLLRTELSLLLQNTHPRQQALEQLLEDKVED
# Molecular target: T1, SPATA2_PIM
# Test: FP, FITC-Ahx peptide
row,Binder,Kd [µM]
1,B1,> 100
2,B2,> 100
3,B3,> 100
4,B4,0.36

# Molecular target: T2, OTULIN_PIM
# Test: FP, FITC-Ahx peptide
row,Binder,Kd [µM]
1,B2,> 100

# Molecular target: T3, p97_PIM
# Test: FP, FITC-Ahx peptide
row,Binder,Kd [µM]
1,B1,27.1
2,B2,> 100
3,B3,2.1
4,B4,10.2

# Source: PMC5031558 (2016)
